Experimental findings from patent US20060270596A1 (CENTRE NATIONAL DE LA RECHERCHE SCIENTIFIQUE CNRS, published 2006) are described below.

Assay [1] has as its target T1, human THAP1 (THanatos-Associated-Protein-1), full length (human, UniProt Q9NVV9 1-213).
T1 construct: these tags are not written into the chain; also called hTHAP1; THAP1 wild type
T1 sequence: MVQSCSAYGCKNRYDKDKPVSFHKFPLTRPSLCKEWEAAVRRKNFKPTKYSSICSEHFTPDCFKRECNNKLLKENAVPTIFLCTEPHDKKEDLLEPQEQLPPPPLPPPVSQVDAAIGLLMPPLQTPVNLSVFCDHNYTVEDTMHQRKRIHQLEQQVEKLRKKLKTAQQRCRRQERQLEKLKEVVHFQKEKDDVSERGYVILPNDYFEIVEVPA
The assay can be described thus: yeast two-hybrid, both orientations. The protocol:
To identify potential protein partners of THAP1, screening of the two-hybrid HEVEC cDNA library was performed using as a bait the human THAP1 full length cDNA inserted into the […] two-hybrid system 3 vector pGBKT7 (Clontech). Briefly, the full-length coding region of THAP1 was amplified by PCR from HEVEC cDNA with primers 2HMR10 (5′-[…]-3′) (SEQ ID NO: 187) and 2HMR9 (5′-[…]-3′) (SEQ ID NO: 188), digested with EcoRI and BamHI, and cloned in frame downstream of the Gal4 Binding Domain (Gal4-BD) in pGBKT7 vector to generate pGBKT7-THAP1. pGBKT7-THAP1 was then cotransformed with the pGAD424-HEVEC cDNA library in yeast strain AH109 (Clontech). 1.5×10⁷ yeast transformants were screened and positive protein interactions were selected by His and Ade double auxotrophy according to manufacturer's instructions ([…] two-hybrid system 3, Clontech). The plates were incubated at 30° C. for 5 days. Plasmid DNA was extracted from these positive colonies and used to verify the specificity of the interaction by cotransformation in AH109 with pGBKT7-THAP1 or control baits pGBKT7, pGBKT7-lamin and pGBKT7-hevin. […] Positive interaction between THAP1 and Par4 was confirmed using full length Par4 bait (pGBKT-Par4) and prey (pGADT7-Par4). […]

The target of assay [2] is T2, THAP1ΔQRCRR mutant (deletion of residues 168-172) (human, UniProt Q9NVV9 1-213).
T2 sequence: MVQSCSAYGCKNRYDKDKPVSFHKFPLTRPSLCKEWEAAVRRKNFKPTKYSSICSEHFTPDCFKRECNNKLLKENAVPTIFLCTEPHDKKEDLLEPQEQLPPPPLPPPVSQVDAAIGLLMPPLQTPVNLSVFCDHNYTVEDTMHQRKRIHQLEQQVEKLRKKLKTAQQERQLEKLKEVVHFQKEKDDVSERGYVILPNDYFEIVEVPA
Put plainly: yeast two-hybrid and in vivo interaction assay.

B1: Par4 leucine zipper/death domain (Par4DD, amino acids 250-342) (other)
chain: GFPRYNRDANVSGTLVSSSTLEKKIEDLEKEVVTERQENLRLVRLMQDKEEMIGKLKEEIDLLNRDLDDIEDENEQLKQENKTLLKVVGQLTR
notes: Gal4 fusion in two-hybrid; also called myc-Par4DD
In the case of B1, the figures for the binding result in assay [1] and in assay [2] were “binds” and “no binding”, respectively.
